The source of these data is PMC3514461 (ACS chemical biology, 2012).

This data set concerns the molecule itself. In words: crystal structure.

B1: hASRGL1-Thr168Ala (human asparaginase-like protein 1, processing-inactive, precursor-like variant) (enzyme, UniProt Q7L266 1-308, looked up)
chain: MNPIVVVHGGGAGPISKDRKERVHQGMVRAATVGYGILREGGSAVDAVEGAVVALEDDPEFNAGCGSVLNTNGEVEMDASIMDGKDLSAGAVSAVQCIANPIKLARLVMEKTPHCFLTDQGAAQFAAAMGVPEIPGEKLVTERNKKRLEKEKHEKGAQKTDCQKNLGAVGAVALDCKGNVAYATSTGGIVNKMVGRVGDSPCLGAGGYADNDIGAVSTTGHGESILKVNLARLTLFHIEQGKTVEEAADLSLGYMKSRVKGLGGLIVVSKTGDWVAKWTSTSMPWAAAKDGKLHFGIDPDDTTITDLP
For the protein B1, the binding result is given as “binds”.
